{"source": "the supplement of paper PMC6755084", "parents": {"B1": {"name": "F1*; the commonest letter at each place (parent)", "chain": "GAGACCGCAACTGAAAAGTTGTTATCACTTGTCGTAAGACACTTTGGATGGGTTGAAGTTCTGCACGTAGAAGCAAAAGGC"}}}
{"variants_of": "B1", "assay": "fraction ligated after 30 min (ligated reads / total reads); higher = more ligase activity", "conditions": "with F1*sub RNA substrate (template-directed ligation), 42 °C", "method": "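Chip-synthesised pool of F1* ligase ribozyme variants (all single and double substitutions, single, double and triple deletions in the catalytic core and GAA bulge, plus designed variants) was transcribed with T7 and reacted as a pool with excess substrate F1*sub for 30 min at 42 C in 50 mM EPPS pH 8.5, 25 mM MgCl2. Ligated and unligated bands were separated by PAGE, barcoded by RT and deep sequenced; fraction ligated = ligated reads / total reads per variant, relative activity = FL / FL of wild type (0.826). Sequences are the DNA template of the ribozyme.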"}
{"variant": "GAGACCGCAACTGAAAAGTTGTAATCACTTGCCGTAAGACACTTTGGATGGGTTGAAGTTCTGCACGTAGAAGCAAAAGGC", "note": "[T23A T32C]", "fraction ligated": 0.771}
{"variant": "GAGACCGCAACTGAAAAGTTGTAATCACTTGGCGTAAGACACTTTGGATGGGTTGAAGTTCTGCACGTAGAAGCAAAAGGC", "note": "[T23A T32G]", "fraction ligated": 0.829}
{"variant": "GAGACCGCAACTGAAAAGTTGTAATCACTTGACGTAAGACACTTTGGATGGGTTGAAGTTCTGCACGTAGAAGCAAAAGGC", "note": "[T23A T32A]", "fraction ligated": 0.859}
{"variant": "GAGACCGCAACTGAAAAGTTGTAATCACTTGTCGTAAGACACTTTGGATAGGTTGAAGTTCTGCACGTAGAAGCAAAAGGC", "note": "[T23A G50A]", "fraction ligated": 0.477}
{"variant": "GAGACCGCAACTGAAAAGTTGTAATCACTTGTCGTAAGACACTTTGGATTGGTTGAAGTTCTGCACGTAGAAGCAAAAGGC", "note": "[T23A G50T]", "fraction ligated": 0.699}
{"variant": "GAGACCGCAACTGAAAAGTTGTAATCACTTGTCGTAAGACACTTTGGATCGGTTGAAGTTCTGCACGTAGAAGCAAAAGGC", "note": "[T23A G50C]", "fraction ligated": 0.255}
{"variant": "GAGACCGCAACTGAAAAGTTGTAATCACTTGTCTTAAGACACTTTGGATGGGTTGAAGTTCTGCACGTAGAAGCAAAAGGC", "note": "[T23A G34T]", "fraction ligated": 0.812}
{"variant": "GAGACCGCAACTGAAAAGTTGTAATCACTTGTCCTAAGACACTTTGGATGGGTTGAAGTTCTGCACGTAGAAGCAAAAGGC", "note": "[T23A G34C]", "fraction ligated": 0.813}
{"variant": "GAGACCGCAACTGAAAAGTTGTAATCACTTGTCATAAGACACTTTGGATGGGTTGAAGTTCTGCACGTAGAAGCAAAAGGC", "note": "[T23A G34A]", "fraction ligated": 0.814}
{"variant": "GAGACCGCAACTGAAAAGTTGTAATCACGTGTCGTAAGACACTTTGGATGGGTTGAAGTTCTGCACGTAGAAGCAAAAGGC", "note": "[T23A T29G]", "fraction ligated": 0.82}
{"variant": "GAGACCGCAACTGAAAAGTTGTAATCACCTGTCGTAAGACACTTTGGATGGGTTGAAGTTCTGCACGTAGAAGCAAAAGGC", "note": "[T23A T29C]", "fraction ligated": 0.797}
{"variant": "GAGACCGCAACTGAAAAGTTGTAATCACATGTCGTAAGACACTTTGGATGGGTTGAAGTTCTGCACGTAGAAGCAAAAGGC", "note": "[T23A T29A]", "fraction ligated": 0.826}
{"variant": "GAGACCGCAACTGAAAAGTTGTCATCACTTGTCGTTAGACACTTTGGATGGGTTGAAGTTCTGCACGTAGAAGCAAAAGGC", "note": "[T23C A36T]", "fraction ligated": 0.823}
{"variant": "GAGACCGCAACTGAAAAGTTGTCATCACTTGTCGTCAGACACTTTGGATGGGTTGAAGTTCTGCACGTAGAAGCAAAAGGC", "note": "[T23C A36C]", "fraction ligated": 0.828}
{"variant": "GAGACCGCAACTGAAAAGTTGTCATCACTTGTCGTGAGACACTTTGGATGGGTTGAAGTTCTGCACGTAGAAGCAAAAGGC", "note": "[T23C A36G]", "fraction ligated": 0.817}
{"variant": "GAGACCGCAACTGAAAAGTTGTCGTCACTTGTCGTAAGACACTTTGGATGGGTTGAAGTTCTGCACGTAGAAGCAAAAGGC", "note": "[T23C A24G]", "fraction ligated": 0.794}
{"variant": "GAGACCGCAACTGAAAAGTTGTCCTCACTTGTCGTAAGACACTTTGGATGGGTTGAAGTTCTGCACGTAGAAGCAAAAGGC", "note": "[T23C A24C]", "fraction ligated": 0.73}
{"variant": "GAGACCGCAACTGAAAAGTTGTCTTCACTTGTCGTAAGACACTTTGGATGGGTTGAAGTTCTGCACGTAGAAGCAAAAGGC", "note": "[T23C A24T]", "fraction ligated": 0.501}
{"variant": "GAGACCGCAACTGAAAAGTTGTAATCACTTGTCGTAAGACACGTTGGATGGGTTGAAGTTCTGCACGTAGAAGCAAAAGGC", "note": "[T23A T43G]", "fraction ligated": 0.81}
{"variant": "GAGACCGCAACTGAAAAGTTGTAATCACTTGTCGTAAGACACATTGGATGGGTTGAAGTTCTGCACGTAGAAGCAAAAGGC", "note": "[T23A T43A]", "fraction ligated": 0.803}
{"variant": "GAGACCGCAACTGAAAAGTTGTAATCACTTGTCGTAAGACACCTTGGATGGGTTGAAGTTCTGCACGTAGAAGCAAAAGGC", "note": "[T23A T43C]", "fraction ligated": 0.783}
{"variant": "GAGACCGCAACTGAAAAGTTGTAATCACTTGTCGTAAGATACTTTGGATGGGTTGAAGTTCTGCACGTAGAAGCAAAAGGC", "note": "[T23A C40T]", "fraction ligated": 0.833}
{"variant": "GAGACCGCAACTGAAAAGTTGTAATCACTTGTCGTAAGAAACTTTGGATGGGTTGAAGTTCTGCACGTAGAAGCAAAAGGC", "note": "[T23A C40A]", "fraction ligated": 0.815}
{"variant": "GAGACCGCAACTGAAAAGTTGTAATCACTTGTCGTAAGAGACTTTGGATGGGTTGAAGTTCTGCACGTAGAAGCAAAAGGC", "note": "[T23A C40G]", "fraction ligated": 0.838}
{"variant": "GAGACCGCAACTGAAAAGTTGTAATCACTTGTCGGAAGACACTTTGGATGGGTTGAAGTTCTGCACGTAGAAGCAAAAGGC", "note": "[T23A T35G]", "fraction ligated": 0.817}
{"variant": "GAGACCGCAACTGAAAAGTTGTAATCACTTGTCGCAAGACACTTTGGATGGGTTGAAGTTCTGCACGTAGAAGCAAAAGGC", "note": "[T23A T35C]", "fraction ligated": 0.811}
{"variant": "GAGACCGCAACTGAAAAGTTGTAATCACTTGTCGAAAGACACTTTGGATGGGTTGAAGTTCTGCACGTAGAAGCAAAAGGC", "note": "[T23A T35A]", "fraction ligated": 0.827}
{"variant": "GAGACCGCAACTGAAAAGTTGTAAACACTTGTCGTAAGACACTTTGGATGGGTTGAAGTTCTGCACGTAGAAGCAAAAGGC", "note": "[T23A T25A]", "fraction ligated": 0.652}
{"variant": "GAGACCGCAACTGAAAAGTTGTAACCACTTGTCGTAAGACACTTTGGATGGGTTGAAGTTCTGCACGTAGAAGCAAAAGGC", "note": "[T23A T25C]", "fraction ligated": 0.762}
{"variant": "GAGACCGCAACTGAAAAGTTGTAAGCACTTGTCGTAAGACACTTTGGATGGGTTGAAGTTCTGCACGTAGAAGCAAAAGGC", "note": "[T23A T25G]", "fraction ligated": 0.737}
{"variant": "GAGACCGCAACTGAAAAGTTGTAATCACTTGTCGTAAGACACTTTTGATGGGTTGAAGTTCTGCACGTAGAAGCAAAAGGC", "note": "[T23A G46T]", "fraction ligated": 0.479}
{"variant": "GAGACCGCAACTGAAAAGTTGTAATCACTTGTCGTAAGACACTTTCGATGGGTTGAAGTTCTGCACGTAGAAGCAAAAGGC", "note": "[T23A G46C]", "fraction ligated": 0.731}
{"variant": "GAGACCGCAACTGAAAAGTTGTAATCACTTGTCGTAAGACACTTTAGATGGGTTGAAGTTCTGCACGTAGAAGCAAAAGGC", "note": "[T23A G46A]", "fraction ligated": 0.749}
{"variant": "GAGACCGCAACTGAAAAGTTGTCATCACTTGTCGTAAGACACTTTGGATGGGTTGAAGTTCTGCACGTAGAAGCAAAAGGC", "note": "[T23C]", "fraction ligated": 0.846}
